The values below come from the nanobody polyreactivity screen of Harvey et al. (2022).

This data set can be described thus: yeast display, Sf9 membrane polyspecificity reagent, FACS + sequencing; frameworks hold sequencing errors. The essentials: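 After 36–48 hours of galactose induction, yeast (Saccharomyces cerevisiae BJ5465) displaying a synthetic nanobody library were stained at 4 °C for 1 hour with 10% biotinylated, detergent-solubilized Sf9 membrane reagent. Streptavidin microbeads enriched the stained cells before FACS sorting into low and high (top ~1%) gates on anti-HA and streptavidin fluorescence. Each clone's polyreactivity label reflects its gate of origin.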
For “QVQLVESGGGLVQAGGSLRLSCAASGSIFSIYAMGWYRQAPGKERELVAAITWGGGSTYYADSVKGRFTISRDNAKNTVNLQMNSLKPEDTAVYYCAADSLTWFGTYYYWGQGTQVTVSS”, the “polyreactivity (PSR sort gate)” value is on record as “high polyreactivity”.

“QVQLVESGGGLVQAGGSLRLSCAASGSIFSIYAMGWYRQAPGKERELVATIRRDGSTYADSVKGRFTISRDNAKNTVYLQMNSLKPEDTAVYYCNARSYHQPRDYYWGQGTQVNVSS”: the “polyreactivity (PSR sort gate)” value is given as “low polyreactivity”.

As to “QVQLVESGGGLVQAGGSLRLSCAASGSIFSIYAMGWYRQAPGKERELVATIRVSGDRTYYADSVKGRFTISRDNAKNTVYLQMNSLKPEDTAVYYCAADFRGFYSWNFYYWGQGTQVTVSS”, the “polyreactivity (PSR sort gate)” value is listed as “high polyreactivity”.

Take “QVQLVESGGGLVQAGGSLRLSCAASGSIFSKYAMGWYRQAPGKERELVAAISGSGGDTYYADSVKGRFTISRDNAKNTVYLQMNSLKPEDTAVYFCAAEDQQNGYDYWGQGTQVTVSS”: the “polyreactivity (PSR sort gate)” value is reported as “low polyreactivity”.

Turning to “QVQLVESGGGLVQAGGSLRLSCAASGSIFSKYAMGWYRQAPGKEWEVVAAIRSIGGSTYYADSVMGRFTISRDNAKNTVYLQMNSRNPDDTAVYYCAARFWPAYSGWYENWGQGTQVTVSS”, the “polyreactivity (PSR sort gate)” value was “low polyreactivity”.

Regarding “QVQLVESGGGLVQAGGSLRLSCAASGSIFSLYAMGWYRQAPGKASELVASITSSGGRTYYADSVKGRFTITRDTAKNTVYLQMNSLKPEDTAVYYCNNQPSWVGQRVHRFDYWGQGTQVTVSS”, the “polyreactivity (PSR sort gate)” value is reported as “low polyreactivity”.

Take “QVQLVESGGGLVQAGGSLRLSCAASGSIFSLYAMGWYRQAPGKERELVAAISSSGTSTYYADSVKGRFTISRDNAKNTVYLQMNSLKPEDTAVYYCNAYRRRATYNGDYWGQGTQVTVSS”: the “polyreactivity (PSR sort gate)” value is “high polyreactivity”.

Turning to “QVQLVESGGGLVQAGGSLRLSCAASGSIFSLYAMGWYRQAPGKERELVADIRTSTGRTYYADSVKGRFTISRDNAKNTVYLQMNSLKPEDTAVYYCNADEYKSAVSVGYEYWGQGTQVTVSS”, the “polyreactivity (PSR sort gate)” value is given as “high polyreactivity”.

For the sequence “QVQLVESGGGLVQAGGSLRLSCAASGSIFSNNAMGLYRQAPGKVSELVASITFSGGNTYYADSVKGRFTISRDNAKNTVYLQMNSLKPEDTAVYYCNADRYPVGTAREYDSWGQGTQVTVSS”, the “polyreactivity (PSR sort gate)” value was “low polyreactivity”.

With “QVQLVESGGGLVQAGGSLRLSCAASGSIFSPNAMGWYRQAPGKERELVAGITRSGGRTYYADSVKGRFTISRDNAMNTVYLQMNSLKPEDTAVYYCAARAFSYGLKYDYWGQGTQVTVSS”, the “polyreactivity (PSR sort gate)” value is on record as “high polyreactivity”.

“QVQLVESGGGLVQAGGSLRLSCAASGSIFSPNVMGWYRQAPGKERELVAAINGSGSRTYYADSVKGRFTISRDNAKNTVYLQMNSLKPEDTAVYYCAAGSLGRYYFKLDYWGQGTQVTVSS”: the “polyreactivity (PSR sort gate)” value was “high polyreactivity”.

In the case of “QVQLVESGGGLVQAGGSLRLSCAASGSIFSPYAMGWYRQAPGKERELDASISSGTSTNYADSVKGRFTISRDNAKNTVYLQMNSLKPEDTAVYYCNAGADSTVRNYVTSFSQYDYWGQGTQVTVSS”, the “polyreactivity (PSR sort gate)” value was “low polyreactivity”.

“QVQLVESGGGLVQAGGSLRLSCAASGSIFSRNAKGWYRQAPGKERELVAAITSGGSTNYADSVKGRFTISRDNAKNTVYLQMNSLKPEDTAVYYCARGWISGFTSRYSIRVLFDYWGQGTQVTVSS”: the “polyreactivity (PSR sort gate)” value is “high polyreactivity”.

As to “QVQLVESGGGLVQAGGSLRLSCAASGSIFSRYALGWYRQAPGKERELVAAISTIGGSTYYADSVKGRFTISRDNSKNTVYLQMNSLKPEDTAVYYCNARQSAALSPRYGYWGQGTQVTVSS”, the “polyreactivity (PSR sort gate)” value is “high polyreactivity”.

Turning to “QVQLVESGGGLVQAGGSLRLSCAASGSIFSRYAMGWYRPAPGKERELVAAISRSTGSTYYADSVKGRFTISRDNAKNTVYLQMNSLKPEDTAVYYCAAKWIRWGYVSSNSRFGYWGQGTQVTVSS”, the “polyreactivity (PSR sort gate)” value is recorded as “high polyreactivity”.

As to “QVQLVESGGGLVQAGGSLRLSCAASGSIFSRYAMGWYRQAPGKERELVAAINGRGSRTYYADSVKGRFTISRDNEMNTVYLQMNSLKPEDTAVYYCAAGRSRLYGPRYFIYKYNYWGQGTQVTVSS”, the “polyreactivity (PSR sort gate)” value is “high polyreactivity”.

As to “QVQLVESGGGLVQAGGSLRLSCAASGSIFSRYAMGWYRQAPGKERELVAAISGRGGGTYYADSVKGRFTISRDNAKNTVYLQKNSMKPEDTAVYYCAAQLGRPAYSRVSWRAYYYWGQGTQVTVSS”, the “polyreactivity (PSR sort gate)” value is recorded as “low polyreactivity”.

For the sequence “QVQLVESGGGLVQAGGSLRLSCAASGSIFSRYAMGWYRQAPGKERELVAAITWRGGSTYYADSVKGRFTISRDNAKNTVYLQMNSLKPEDTAVYYCAKDRWTYAFRVGYGYWGQGTQVTVSS”, the “polyreactivity (PSR sort gate)” value is on record as “high polyreactivity”.

Turning to “QVQLVESGGGLVQAGGSLRLSCAASGSIFSRYTMGWSRQAPGKERELVASISRRGGRTYYADSVKGRFTISRDNAKNTVYLQMNSLKPEDTAVYYCNTRTPAEYTPYGYDYWGQGTQVTVSS”, the “polyreactivity (PSR sort gate)” value is “high polyreactivity”.

For “QVQLVESGGGLVQAGGSLRLSCAASGSIFSRYTMGWYRQEPGKERELVAAITSSGGRTYYADSVKGRFTISRDNAKNTVYLQMNSLKPEDTAVYYCAARIPKQQGYGYWGQGTQVTVSS”, the “polyreactivity (PSR sort gate)” value was “high polyreactivity”.

In the case of “QVQLVESGGGLVQAGGSLRLSCAASGSIFSSNAMGWYRQAPGKERELVAAITRGGRTTYADSVKGRFTISRDNAKNTVYLQMNSLKPEDTAVYYCNAESYLTGWWVDYWGQGTQVTVSS”, the “polyreactivity (PSR sort gate)” value is reported as “low polyreactivity”.

Take “QVQLVESGGGLVQAGGSLRLSCAASGSIFSSNAMGWYRQAPGSTNYADSVKGRFTISRDNAKNTVYLQMNSLKPEDTAVYYCAKDYVLFQYVDFQDDDYWGQGTQVTVSS”: the “polyreactivity (PSR sort gate)” value is given as “low polyreactivity”.

On to “QVQLVESGGGLVQAGGSLRLSCAASGSIFSSNAMVWYRPAPGKERELVAAIDYSGGRTYYADSVKGRFTISRDNPKNTVYLQMNSLKPEDTAVYYCAKLIPVHSRYDYWGQGTQVTVSS”, for which the “polyreactivity (PSR sort gate)” value is “low polyreactivity”.

As for “QVQLVESGGGLVQAGGSLRLSCAASGSIFSSYAKGWYLQAPGKERELVAAISQSGGDTYYADSVKGRFTISRDNAKNTVYLEMNSLKPEDSAVYYCAASVWYYPMDYWGQGSQVTVSS”, the “polyreactivity (PSR sort gate)” value is on record as “low polyreactivity”.

Regarding “QVQLVESGGGLVQAGGSLRLSCAASGSIFSSYALGWYRQAPGKVRELVAAITKRADRTNYADSVKGRFTISRDNAKNTVYLQMNSLKPEDTAVYYCNAEGQNDHPSNGYISYKYDYWGQGTQVTVSS”, the “polyreactivity (PSR sort gate)” value is on record as “low polyreactivity”.

Turning to “QVQLVESGGGLVQAGGSLRLSCAASGSIFSSYAMGWYIQAPGKEMELVAGITWGGASTYYADSVKGRFTISRDNAKNTVYLQMNSLKPEDTAVYYCNRRAWVYYAPFTVIVLYGRDYWGQGTQVTVSS”, the “polyreactivity (PSR sort gate)” value is “low polyreactivity”.

Consider “QVQLVESGGGLVQAGGSLRLSCAASGSIFSSYAMGWYRQAPGKERELVAAITGRDGSTYYADSVKGRFTISRDNAKNTVYLQMNILKPEDTAVYYCAASRFYFPRTFGGYPKLASYDYWGQGTQVTVSS”, for which the “polyreactivity (PSR sort gate)” value was “low polyreactivity”.

As for “QVQLVESGGGLVQAGGSLRLSCAASGSIFSSYAMGWYRQAPGKERELVAAITRRGGSTYYADSVKGRFTISRDNAKNTVYLQMNSLKPEDTAVYYCATGITARSRYGYWGQGTQVTVSS”, the “polyreactivity (PSR sort gate)” value is given as “high polyreactivity”.

In the case of “QVQLVESGGGLVQAGGSLRLSCAASGSIFSSYVMGWYRQAPGKERELVAAITSRGGSTYCADSVKGRFTISRDNAKNTVYFQMKSLKPEDTAVYYCAKGGTTWYWSGYRSIYFRYDYWGQGTQVTVSS”, the “polyreactivity (PSR sort gate)” value is listed as “high polyreactivity”.

Regarding “QVQLVESGGGLVQAGGSLRLSCAASGSIFSTYAMGRYRQAPGKERELVAAITFGGGTTYYADSVKGRFTISRDNAKNTVYLQMNSLKPEDTAVYYCAARYYYGSWYFYYSDKYDYWGQGTKVTVSS”, the “polyreactivity (PSR sort gate)” value is “low polyreactivity”.

In the case of “QVQLVESGGGLVQAGGSLRLSCAASGSIFSTYAMGWYRQAPGKERELVAAISGSGGRTYYADSVKGRFTISRDNAKNTVYLQMNSLKPEDTAVYYCAADGGSVKTPGYYYWGQGTQVTVSS”, the “polyreactivity (PSR sort gate)” value was “high polyreactivity”.

On to “QVQLVESGGGLVQAGGSLRLSCAASGSIFSTYAMGWYRQAPGKERELVASISRRGGSTYYADSVKGRFTISRDNAKNTVYLQMNSLKPEDTAVYYCNASGGPYRFYYWGQGTQVTVSS”, for which the “polyreactivity (PSR sort gate)” value is reported as “low polyreactivity”.

As for “QVQLVESGGGLVQAGGSLRLSCAASGSIFSTYAMGWYRQAPGKERELVATIRRGGSTYYADSVKGRFTISRDNAKNTVYLQMNSLKPEETAVYYCAGTVSSYPYYRYYTWGQGTQVTVSS”, the “polyreactivity (PSR sort gate)” value is given as “high polyreactivity”.

Turning to “QVQLVESGGGLVQAGGSLRLSCAASGSIFSVNAMGWYRQAPGKEREFVAGISTSGGSTYYADSVKGRFTISRDNAKNTVYLQMNSLKPEDTAVYYCAKGNFLYWQVRYYRPYKSRFYYWGQGTQVTVSS”, the “polyreactivity (PSR sort gate)” value is on record as “low polyreactivity”.

Turning to “QVQLVESGGGLVQAGGSLRLSCAASGSIFSVNTMGWNRKAPGKERELVATIRTGDSTNYADSVKGRFTISRDNAKNSVYLQMNSLKPEDTAVYYCAAEWSSMNFDYWGQGTQVNVSS”, the “polyreactivity (PSR sort gate)” value is on record as “low polyreactivity”.

In the case of “QVQLVESGGGLVQAGGSLRLSCAASGSIFSVYAMGWYRQAPGKEREFVASISGGSGRTYYADSVKGRFTISRDNAKNTVYLQMNSLKPEDTAVYYCDAVLRYTSLSHDYHYKYDYWGQGTQVTVSS”, the “polyreactivity (PSR sort gate)” value is “low polyreactivity”.

For “QVQLVESGGGLVQAGGSLRLSCAASGSIFSVYAMGWYRQAPGKERELVAGITRGGSTYADSVKGRFTISRDNAKNTVYLQMNSLKPEDTAVSYCAADALIATPSWGKYNYWGQGTQVTVSS”, the “polyreactivity (PSR sort gate)” value was “high polyreactivity”.

As for “QVQLVESGGGLVQAGGSLRLSCAASGSIFSVYVMGWYRPAPGKERELVATISSGGGTYYADSVKGRFTISRDNAKNTVYLQMNSLKPEDTAVYYCYADWDDWKGDYWGQGTQVTVSS”, the “polyreactivity (PSR sort gate)” value was “low polyreactivity”.

On to “QVQLVESGGGLVQAGGSLRLSCAASGSIFSWYAMAWYRQAPGKETELVADITWTVGSTYYADSVKGRFTISRDNAKNPVYLQMNSLIPEDTAVYYWAARRVVYRYYWYSAYDYSGQGTQVTVSS”, for which the “polyreactivity (PSR sort gate)” value is reported as “high polyreactivity”.

On to “QVQLVESGGGLVQAGGSLRLSCAASGSIFSWYAMGWYRQAPGKEREFVAAITWGTGGTYYADSVKGRFTISRDNAKNTVYLQMNSLKLEDTAVYYCAKTRSYGRSGVSRRYGFYYWGQGTQVTVSS”, for which the “polyreactivity (PSR sort gate)” value is reported as “high polyreactivity”.
